Measured values taken from the supplement of paper PMC10126150.
± gives the standard deviation of the averaged measurements.

Test system: ATP
Assay: switch fluorescence ratio, 500 uM ATP over buffer (Cy3 cluster intensity, sum of 5 cycles each) (fold (ratio)); higher = stronger signal-on switching upon ATP binding; sequences stand for … in TCGTCGGCAGCGTCAGATGTGTATAAGAGACAGTTTTTTTTTTTTTTTTTTTTTTTTT…TC
Conditions: aptamer strand: ATP DNA aptamer (quencher-CACCTGGGGGAGTATTGCGGAGGAAGG + anchor), 100 nM annealed; ATP concentration: 500 uM
Summary of the method: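 Between each of five buffer/ATP cycles, the flow-cell was stripped with NaOH and re-annealed. Each cycle imaged Cy3-labelled switching-strand clusters, annealed to 100 nM quencher-labelled ATP aptamer on a modified Illumina MiSeq flow-cell, first in selection buffer and then after 15 min with 500 uM ATP at 22 °C. The fluorescence ratio is summed target-cycle over summed buffer-cycle Cy3 intensity per cluster, averaged per switch-domain sequence, with clusters outside 100-1000 RFU excluded.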
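Further: ATP exposure 15 min at 22 °C before imaging.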

Row | Sequence | switch fluorescence ratio
1 | AATTTTATTT | 1.03 ± 0.062
2 | AATTTTGCTT | 1.01 ± 0.015
3 | AATTTTGGCT | 0.964 ± 0.03
4 | AATTTTTTGG | 1 ± 0.046
5 | ACAAAGGAGC | 1 ± 0.022
6 | ACAAAGTAAA | 1.01 ± 0.035
7 | ACAAATGGGA | 1.02 ± 0.044
8 | ACAACAGGGG | 2.91 ± 0.65
9 | ACAACCGTTT | 1.02 ± 0.027
10 | ACAACTTTTT | 1.02 ± 0.044
11 | ACAAGAATTA | 1.01 ± 0.055
12 | ACAAGGGCGG | 1.01 ± 0.015
13 | ACAAGTAATA | 1.06 ± 0.057
14 | ACAAGTATTA | 1.017 ± 0.0051
15 | ACAAGTGAGG | 1.02 ± 0.023
16 | ACAAGTTTTG | 1.04 ± 0.0022
17 | ACAATATTTT | 1.02 ± 0.02
18 | ACAATCTTTA | 0.994 ± 0.03
19 | ACAATTGTCG | 1.028 ± 0.01
20 | ACACAACTGT | 1.14 ± 0.077
21 | ACACAAGGCT | 1.03 ± 0.037
22 | ACACACTCAA | 1.28 ± 0.029
23 | ACACAGAGAG | 1.02 ± 0.033

Row | Sequence | switch fluorescence ratio
24 | ACACAGAGTT | 1.03 ± 0.014
25 | ACACAGGGGG | 1.0997 ± 0.00043
26 | ACACAGTATT | 1.0263 ± 0.00076
27 | ACACATAGAC | 1.17 ± 0.051
28 | ACACATTTTT | 1.011 ± 0.01
29 | ACACCAGCTA | 0.9876 ± 0.0061
30 | ACACCGGGTC | 1.21 ± 0.071
31 | ACACGGGGAG | 1.01 ± 0.044
32 | ACACGGGGGT | 1.01 ± 0.018
33 | ACACGTAGTT | 0.984 ± 0.021
34 | ACACTATCAC | 1.21 ± 0.049
35 | ACACTTTTTT | 1 ± 0.055
36 | ACAGAACAGT | 1.03 ± 0.016
37 | ACAGAAGGGG | 1.02 ± 0.012
38 | ACAGACTGAT | 1.1 ± 0.076
39 | ACAGAGAAAT | 1.03 ± 0.036
40 | ACAGAGGGTT | 1.03 ± 0.045
41 | ACAGATTCTA | 0.984 ± 0.05
42 | ACAGCATGCC | 0.997 ± 0.013
43 | ACAGCATGTA | 0.9589 ± 0.0093
44 | ACAGCGGATG | 1.028 ± 0.0095
45 | ACAGCTAGTA | 0.986 ± 0.019
46 | ACAGCTCGAG | 1 ± 0.02

Row | Sequence | switch fluorescence ratio
47 | ACAGCTGATG | 0.977 ± 0.059
48 | ACAGGAAGAG | 1.05 ± 0.038
49 | ACAGGACAGG | 1.14 ± 0.014
50 | ACAGGACCGT | 1.11 ± 0.038
51 | ACAGGAGGTG | 1.13 ± 0.035
52 | ACAGGAGTTC | 0.968 ± 0.053
53 | ACAGGCACGC | 1.069 ± 0.0017
54 | ACAGGCGATC | 1.09 ± 0.018
55 | ACAGGCTGAG | 0.9973 ± 0.0097
56 | ACAGGCTTTT | 1 ± 0.018
57 | ACAGGGAAAT | 0.994 ± 0.038
58 | ACAGGGATTT | 1.03 ± 0.041
59 | ACAGGGGGGT | 1.17 ± 0.24
60 | ACAGGGTTCT | 0.987 ± 0.025
61 | ACAGGTAAGG | 1.055 ± 0.0073
62 | ACAGGTCTGT | 0.9797 ± 0.0047
63 | ACAGGTGCCG | 1.13 ± 0.11
64 | ACAGGTTGTT | 1.03 ± 0.071
65 | ACAGGTTTGA | 1.03 ± 0.021
66 | ACAGGTTTGC | 1.007 ± 0.0039
67 | ACAGTAGGGA | 1.049 ± 0.0093
68 | ACAGTCGGCG | 1.03 ± 0.021
69 | ACAGTCTATT | 1.02 ± 0.043

Row | Sequence | switch fluorescence ratio
70 | ACAGTGAAAT | 1.02 ± 0.039
71 | ACAGTGCGCG | 1.03 ± 0.083
72 | ACAGTTTTGG | 1.017 ± 0.0047
73 | ACATAAGGTA | 1.04 ± 0.03
74 | ACATAAGGTT | 1.03 ± 0.052
75 | ACATAGAAAA | 1.01 ± 0.044
76 | ACATAGGGTA | 1.01 ± 0.013
77 | ACATAGTCGA | 1.03 ± 0.045
78 | ACATATGGAT | 1 ± 0.015
79 | ACATATTTTA | 1.03 ± 0.016
80 | ACATCAGATC | 1 ± 0.011
81 | ACATCCATTT | 1.02 ± 0.05
82 | ACATCCGAGT | 1.05 ± 0.054
83 | ACATCGGAAC | 1.04 ± 0.015
84 | ACATCGGGGG | 1.013 ± 0.0089
85 | ACATCGGTTG | 0.976 ± 0.028
86 | ACATCGTCGG | 1.014 ± 0.0091
87 | ACATCTCAGT | 1.06 ± 0.059
88 | ACATGAAGCA | 1.06 ± 0.025
89 | ACATGAGATT | 1.04 ± 0.015
90 | ACATGAGTGT | 1.02 ± 0.024
91 | ACATGCGTGG | 0.992 ± 0.022
92 | ACATGGGCGT | 0.977 ± 0.036

Row | Sequence | switch fluorescence ratio
93 | ACATGGGGGC | 1 ± 0.045
94 | ACATGGGGGT | 1.01 ± 0.014
95 | ACATGGGGTC | 0.977 ± 0.012
96 | ACATGGTTAT | 0.994 ± 0.018
97 | ACATGTAGGA | 1 ± 0.032
98 | ACATGTGACG | 0.98236 ± 0.00039
99 | ACATTAAGGG | 1.06 ± 0.031
100 | ACATTAGGCT | 1.02 ± 0.046
101 | ACATTCTTTA | 0.9628 ± 0.0042
102 | ACATTGATAT | 1.01 ± 0.011
103 | ACATTTAGCT | 1.01 ± 0.03
104 | ACATTTTTGC | 0.9897 ± 0.0011
105 | ACCAAATACT | 1.26 ± 0.014
106 | ACCAATATCT | 1.01 ± 0.068
107 | ACCAATGGGG | 1.02 ± 0.036
108 | ACCAATTCGC | 1.06 ± 0.029
109 | ACCAATTGAA | 1.01 ± 0.05
110 | ACCACCGAGG | 1.045 ± 0.0061
111 | ACCACGGGAA | 1.05 ± 0.032
112 | ACCAGCAGCC | 1.21 ± 0.025
113 | ACCAGGCCGC | 1.08 ± 0.03
114 | ACCAGGGAAA | 1.01 ± 0.014
115 | ACCAGGGGGA | 1.01 ± 0.023

Row | Sequence | switch fluorescence ratio
116 | ACCAGGGGTT | 1.19 ± 0.027
117 | ACCAGGTGAT | 4.78 ± 0.26
118 | ACCAGTCTAG | 0.979 ± 0.018
119 | ACCATTTTTT | 0.9862 ± 0.006
120 | ACCCAAAAAG | 1.05 ± 0.12
121 | ACCCACGGAG | 1.17 ± 0.014
122 | ACCCAGGAGC | 1.35 ± 0.12
123 | ACCCAGGTA | 2.1 ± 0.29
124 | ACCCGCTCTT | 1.13 ± 0.022
125 | ACCCTAGTTG | 1.148 ± 0.0094
126 | ACCCTCCGGC | 2.45 ± 0.026
127 | ACCCTTGGGG | 1.02 ± 0.064
128 | ACCGAGGGGT | 1.06 ± 0.077
129 | ACCGATTTTG | 0.994 ± 0.022
130 | ACCGATTTTT | 1.047 ± 0.01
131 | ACCGCAGGGG | 1.42 ± 0.6
132 | ACCGCATAGT | 2.57 ± 0.099
133 | ACCGCGAGGA | 1.54 ± 0.57
134 | ACCGCTCAGT | 1.06 ± 0.023
135 | ACCGCTTCTG | 1.04 ± 0.032
136 | ACCGGGCGAG | 1 ± 0.042
137 | ACCGGGGAAT | 1.02 ± 0.027
138 | ACCGGGGGCC | 1.02 ± 0.013

Row | Sequence | switch fluorescence ratio
139 | ACCGGGTTTT | 1.03 ± 0.02
140 | ACCGTATCTT | 1.06 ± 0.053
141 | ACCGTCCAAA | 1.03 ± 0.024
142 | ACCGTGCCTG | 1.03 ± 0.072
143 | ACCGTGGGTC | 1.02 ± 0.029
144 | ACCGTTACTT | 1.24 ± 0.065
145 | ACCGTTCACG | 1.02 ± 0.031
146 | ACCGTTCTGA | 1.016 ± 0.0092
147 | ACCTACCTCT | 1.48 ± 0.14
148 | ACCTACTGAG | 1.351 ± 0.0076
149 | ACCTAGTCGG | 1.01 ± 0.015
150 | ACCTAGTGGG | 1.005 ± 0.0087
151 | ACCTATGAGG | 1.02 ± 0.029
152 | ACCTATTTTT | 1.01 ± 0.017
153 | ACCTCCAACT | 1.179 ± 0.0092
154 | ACCTGAATTA | 1 ± 0.035
155 | ACCTGATAGT | 1.044 ± 0.0066
156 | ACCTGCAATT | 2.96 ± 0.044
157 | ACCTGGAATT | 1.01 ± 0.031
